The values below come from PMC2063866 (The Journal of Cell Biology, 2006).

The target in this assay is Recombinant full-length WAVE2 tagged with GST at its COOH terminus (UniProt Q9Y6W5 1-498). The experiment in a line: dual polarization interferometry.
Sequence of Recombinant full-length WAVE2 tagged with GST at its COOH terminus (Q9Y6W5 whole entry): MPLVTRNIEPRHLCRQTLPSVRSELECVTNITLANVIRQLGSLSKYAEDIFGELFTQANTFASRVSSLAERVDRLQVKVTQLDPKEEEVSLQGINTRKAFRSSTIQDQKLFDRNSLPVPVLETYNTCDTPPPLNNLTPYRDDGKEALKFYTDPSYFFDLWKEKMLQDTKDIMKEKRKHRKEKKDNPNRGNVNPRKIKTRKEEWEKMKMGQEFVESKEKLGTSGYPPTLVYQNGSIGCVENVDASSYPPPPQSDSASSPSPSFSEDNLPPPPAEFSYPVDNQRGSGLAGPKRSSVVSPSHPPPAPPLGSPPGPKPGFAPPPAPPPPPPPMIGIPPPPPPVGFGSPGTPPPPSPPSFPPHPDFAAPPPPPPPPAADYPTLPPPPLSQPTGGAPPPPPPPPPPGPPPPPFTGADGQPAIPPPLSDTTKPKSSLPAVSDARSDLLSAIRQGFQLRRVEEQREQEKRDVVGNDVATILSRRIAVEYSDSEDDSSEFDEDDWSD

B1: Coiled-coil region of Abi1 (aa 6–124) (domain or fragment)
chain: MLLEEEIPSGKRALIESYQNLTRVADYCENNYIQATDKRKALEETKAYTTQSLASVAYQINALANNVLQLLDIQASQLRRMESSINHISQTVDIHKEKVARREIGILTTNKNTSRTHKI
As usually defined, the Kd is the concentration at which binding is half-saturated. For the molecule B1, the Kd was 600 nM.
